According to patent US20250346679A1 (INVOX PHARMA, published 2025):

What was measured:
[1] = biological target: mouse CD40 (R&D Systems, biotinylated) (mouse, UniProt P27512 24-193, limits assumed, biotinylated); assay: BLI (Octet), biotinylated receptor on streptavidin sensors
Procedure: (§1) The specificity of the anti-mouse CD137 Fcabs for mouse CD137 was tested in HeID1.3 “mock” mAb² format and measured by BLI in an Octet QKe system by testing for binding of the Fcabs to other mouse TNFRSF receptors (CD40, OX40, GITR). […] Anti-mouse CD137 Fcabs in mock mAb² format were diluted 1:1 in kinetic buffer (PALL 18-1092) to a final concentration of at least 1 μM. Antigen-coated sensors were dipped into the mAb² solutions for 180 seconds followed by 180 seconds in 1×kinetic buffer. Antibodies for each of the TNFRSF receptors were used as positive controls.

[2] = biological target: T1, mouse GITR (R&D Systems, biotinylated) (mouse, UniProt O35714 22-153, limits assumed, biotinylated); assay: as above
T1 sequence (looked up): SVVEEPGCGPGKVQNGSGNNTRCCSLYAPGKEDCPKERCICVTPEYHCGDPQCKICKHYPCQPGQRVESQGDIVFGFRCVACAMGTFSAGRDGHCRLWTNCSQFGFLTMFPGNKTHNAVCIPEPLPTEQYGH
Procedure: as §1

[3] = biological target: T2, mouse CD137, cell-surface (mouse, UniProt P20334 24-256); assay: cell-based or functional assay
[4] = biological target: T2, mouse CD137, cell-surface; assay: cell-based or functional assay; remark: listed apart in the source

Chain of mouse CD40 (R&D Systems, biotinylated) (P27512 24-193 limits assumed): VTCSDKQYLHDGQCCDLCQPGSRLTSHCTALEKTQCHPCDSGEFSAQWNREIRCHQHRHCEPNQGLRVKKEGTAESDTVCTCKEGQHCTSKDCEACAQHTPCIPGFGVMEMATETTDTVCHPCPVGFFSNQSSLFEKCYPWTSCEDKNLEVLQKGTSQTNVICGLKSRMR

binding result [1]: no binding (tested: at least 1 µM)
binding result [2]: no binding (tested: at least 1 µM)
+XL EC50 (nM), mouse CD137 DO11.10 T cell activation assay [3]: 0.39 nM
+XL Emax (IL-2 pg/ml), mouse CD137 DO11.10 T cell activation assay [3]: 24200 pg/mL
EC50 upon Protein L crosslinking, NF-κB luciferase assay (HEK.FRT.luc.mCD137) [4]: 1.44 nM
fold-change in activity upon crosslinking, NF-κB luciferase assay (HEK.FRT.luc.mCD137) [4]: 27 fold
B1: FS22m-063 in HeID1.3 mock mAb^2 format (bispecific antibody)
heavy: QVQLQESGPGLVRPSQTLSLTCTVSGSTFSGYGVNWVRQPPGRGLEWIGMIWGDGNTDYNSALKSRVTMLVDTSKNQFSLRLSSVTAADTAVYYCARERDYRLDYWGQGSLVTVSSASTKGPSVFPLAPSSKSTSGGTAALGCLVKDYFPEPVTVSWNSGALTSGVHTFPAVLQSSGLYSLSSVVTVPSSSLGTQTYICNVNHKPSNTKVDKKVEPKSCDKTHTCPPCPAPELLGGPSVFLFPPKPKDTLMISRTPEVTCVVVDVSHEDPEVKFNWYVDGVEVHNAKTKPREEQYNSTYRVVSVLTVLHQDWLNGKEYKCKVSNKALPAPIEKTISKAKGQPREPQVYTLPPSRDEPYWSYVSLTCLVKGFYPSDIAVEWESNGQPENNYKTTPPVLDSDGSFFLYSKLTVMNYRWELGNVFSCSVMHEALHNHYTQKSLSLSPG
light: DIQMTQSPASLSASVGETVTITCRASGNIHNYLAWYQQKQGKSPQLLVYNAKTLADGVPSRFSGSGSGTQYSLKINSLQPEDFGSYYCQHFWSTPRTFGGGTKLEIKRTVAAPSVFIFPPSDEQLKSGTASVVCLLNNFYPREAKVQWKVDNALQSGNSQESVTEQDSKDSTYSLSSTLTLSKADYEKHKVYACEVTHQGLSSPVTKSFNRGEC
notes: anti-mouse CD137 Fcab
